In PMC1326243 (Nucleic Acids Research, 2006):

Target: the molecule itself
Test: cross-linking

B1: B.subtilis RecU Holliday-junction resolvase (enzyme, B. subtilis, UniProt P39792 1-206, looked up)
chain: MIRYPNGKTFQPKHSVSSQNSQKRAPSYSNRGMTLEDDLNETNKYYLTNQIAVIHKKPTPVQIVNVHYPKRSAAVIKEAYFKQSSTTDYNGIYKGRYIDFEAKETKNKTSFPLQNFHDHQIEHMKQVKAQDGICFVIISAFDQVYFLEADKLFYFWDRKEKNGRKSIRKDELEETAYPISLGYAPRIDYISIIEQLYFSPSSGAKG
- stoichiometry N: 2

B2: Bacillus subtilis LrpC (natural protein, B. subtilis, UniProt P96582 1-144, looked up)
chain: MKLDQIDLNIIEELKKDSRLSMRELGRKIKLSPPSVTERVRQLESFGIIKQYTLEVDQKKLGLPVSCIVEATVKNADYERFKSYIQTLPNIEFCYRIAGAACYMLKINAESLEAVEDFINKTSPYAQTVTHVIFSEIDTKNGRG
- stoichiometry N: ≥ 2
